Assay results as given in US20240287484.

Tests used:
Conditions in all cases: qPCR; 3 mM MgCl2, 37 C
[1] = test system: T1, MG153-50 RT (uncultivated organism (metagenomic))
T1 sequence: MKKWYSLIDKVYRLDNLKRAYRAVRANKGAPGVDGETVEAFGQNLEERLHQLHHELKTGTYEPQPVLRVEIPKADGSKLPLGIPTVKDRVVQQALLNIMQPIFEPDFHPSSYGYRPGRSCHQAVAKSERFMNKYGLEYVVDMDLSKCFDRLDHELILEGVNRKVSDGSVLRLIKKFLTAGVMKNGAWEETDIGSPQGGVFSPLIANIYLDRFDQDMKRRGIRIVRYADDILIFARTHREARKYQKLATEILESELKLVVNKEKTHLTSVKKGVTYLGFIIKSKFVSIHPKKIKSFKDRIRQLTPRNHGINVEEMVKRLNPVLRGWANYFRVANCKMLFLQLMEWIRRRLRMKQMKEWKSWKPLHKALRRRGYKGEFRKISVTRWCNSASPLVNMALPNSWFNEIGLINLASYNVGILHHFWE

[2] = test system: T2, MG153-19 RT (uncultivated organism (metagenomic))
T2 sequence: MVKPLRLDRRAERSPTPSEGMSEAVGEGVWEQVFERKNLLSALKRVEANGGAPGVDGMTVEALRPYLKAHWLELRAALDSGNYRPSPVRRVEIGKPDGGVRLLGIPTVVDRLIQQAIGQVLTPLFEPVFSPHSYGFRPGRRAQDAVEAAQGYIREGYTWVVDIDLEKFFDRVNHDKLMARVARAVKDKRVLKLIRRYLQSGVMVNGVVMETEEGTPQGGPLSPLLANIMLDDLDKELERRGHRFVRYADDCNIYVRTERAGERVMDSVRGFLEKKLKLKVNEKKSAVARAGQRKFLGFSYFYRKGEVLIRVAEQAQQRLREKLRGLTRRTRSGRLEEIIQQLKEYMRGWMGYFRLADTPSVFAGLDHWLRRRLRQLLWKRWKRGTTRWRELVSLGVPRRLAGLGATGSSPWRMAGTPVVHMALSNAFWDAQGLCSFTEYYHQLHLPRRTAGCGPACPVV

[3] = test system: T3, MG153-47 RT (uncultivated organism (metagenomic))
T3 sequence: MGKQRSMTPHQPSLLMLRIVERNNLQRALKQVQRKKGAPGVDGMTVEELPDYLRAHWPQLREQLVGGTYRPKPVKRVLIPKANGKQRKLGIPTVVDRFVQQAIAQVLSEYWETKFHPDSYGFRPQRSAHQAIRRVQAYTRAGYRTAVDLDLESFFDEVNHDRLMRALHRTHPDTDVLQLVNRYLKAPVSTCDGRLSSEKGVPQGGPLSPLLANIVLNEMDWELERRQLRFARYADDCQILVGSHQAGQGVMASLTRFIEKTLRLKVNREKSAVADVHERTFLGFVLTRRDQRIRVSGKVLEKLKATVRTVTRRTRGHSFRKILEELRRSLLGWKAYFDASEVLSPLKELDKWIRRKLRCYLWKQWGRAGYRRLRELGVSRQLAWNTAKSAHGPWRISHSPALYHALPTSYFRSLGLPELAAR

[4] = test system: T4, MG167-3 RT (uncultivated organism (metagenomic))
T4 sequence: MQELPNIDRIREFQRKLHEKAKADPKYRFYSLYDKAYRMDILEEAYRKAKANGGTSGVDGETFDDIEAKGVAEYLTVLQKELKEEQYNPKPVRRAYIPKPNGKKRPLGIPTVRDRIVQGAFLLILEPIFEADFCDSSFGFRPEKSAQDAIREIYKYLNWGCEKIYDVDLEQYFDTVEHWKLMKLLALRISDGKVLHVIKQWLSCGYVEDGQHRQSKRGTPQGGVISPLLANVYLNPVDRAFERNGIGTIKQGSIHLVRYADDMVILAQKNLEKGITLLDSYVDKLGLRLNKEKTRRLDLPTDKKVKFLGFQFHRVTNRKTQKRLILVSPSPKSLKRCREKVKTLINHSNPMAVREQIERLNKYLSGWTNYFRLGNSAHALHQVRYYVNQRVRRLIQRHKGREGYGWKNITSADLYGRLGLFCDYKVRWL

[5] = test system: MG167-5 RT (uncultivated organism (metagenomic))
Chain of MG167-5 RT (uncultivated organism (metagenomic)) (chain, as listed by the source): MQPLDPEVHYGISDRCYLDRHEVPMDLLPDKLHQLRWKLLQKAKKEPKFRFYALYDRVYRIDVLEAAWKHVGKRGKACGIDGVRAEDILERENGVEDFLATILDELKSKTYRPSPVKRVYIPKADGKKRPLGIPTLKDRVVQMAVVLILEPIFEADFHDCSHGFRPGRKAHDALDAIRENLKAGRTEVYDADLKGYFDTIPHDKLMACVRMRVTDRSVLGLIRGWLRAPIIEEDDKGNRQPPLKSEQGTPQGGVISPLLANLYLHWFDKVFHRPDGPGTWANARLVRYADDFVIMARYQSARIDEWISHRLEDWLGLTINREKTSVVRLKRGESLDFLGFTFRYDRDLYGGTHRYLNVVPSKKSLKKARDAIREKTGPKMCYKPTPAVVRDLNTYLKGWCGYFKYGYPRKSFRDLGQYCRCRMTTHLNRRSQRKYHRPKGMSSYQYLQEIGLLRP

Measured: activity (fold over background)

200 nt RNA template annealed to DNA primer
> 10: all assays above
